Molecular target: C3aR1 (C3a receptor) on mouse pancreatic islet cells (mouse) (UniProt O09047)
Test: cell-based or functional assay

Chain of C3aR1 (C3a receptor) on mouse pancreatic islet cells (mouse) (O09047 whole entry): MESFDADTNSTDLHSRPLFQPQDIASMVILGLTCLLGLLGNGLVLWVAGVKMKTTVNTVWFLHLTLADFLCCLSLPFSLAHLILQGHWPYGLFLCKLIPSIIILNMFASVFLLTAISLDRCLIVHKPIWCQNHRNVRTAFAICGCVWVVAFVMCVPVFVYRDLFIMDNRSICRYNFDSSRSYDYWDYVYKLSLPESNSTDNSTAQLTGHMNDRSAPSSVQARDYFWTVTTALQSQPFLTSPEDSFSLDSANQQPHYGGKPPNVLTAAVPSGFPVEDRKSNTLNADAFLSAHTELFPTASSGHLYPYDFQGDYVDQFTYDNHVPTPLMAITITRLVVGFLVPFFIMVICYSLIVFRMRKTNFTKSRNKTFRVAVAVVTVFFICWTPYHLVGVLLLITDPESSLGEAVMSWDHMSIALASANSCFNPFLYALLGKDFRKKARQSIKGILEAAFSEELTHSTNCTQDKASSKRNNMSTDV

glucose-stimulated insulin secretion assay on isolated murine islets (enhancement of insulin secretion at high glucose): 30 to 40%
Substance: Recombinant C3a protein (ligand)

From patent US20170072028A1
